Results published in paper PMC10140475.

Assays:
Assay in all cases: SPR
eOD-GT8 = target: eOD-GT8
CH31 (mature) = conditions: antibody concentrations 0.98 nM-1,000 nM; parent: <1
VRC01 (mature) = conditions: antibody concentrations 0.98 nM-1,000 nM; parent: <10
CH31 (germline) = conditions: antibody concentrations 0.98 nM-1,000 nM; parent: N/A
VRC01 (germline) = conditions: antibody concentrations 0.98 nM-1,000 nM; parent: N/A

Substance | Kd (eOD-GT8) | Kd (CH31 (mature)) | Kd (VRC01 (mature)) | Kd (CH31 (germline)) | Kd (VRC01 (germline))
gl-CH31 | 11900 nM |  |  |  | 
BG505 SOSIP trimer (fully glycosylated) (from UniProt Q2N0S6) |  | 0.14 nM | < 0.1 nM | 4000 nM | 670 nM
